Data from patent US20040215400A1, “Computational design of a water-soluble analog of a protein, such as phospholamban and potassium channel KcsA” (priority 2003, published 2004).

Key:
WSK-3 = WSK-3 (Streptomyces lividans, UniProt P0A334, L24D/W26E/G43A/Q58A/T61S/R64D/L81R/V93E/S102V/G104A, form not given)
native channel = native channel (Streptomyces lividans, UniProt P0A334); conditions: read-out: reported Kdiss, Heginbotham et al. 1999; cited from earlier work
[1] = Thermal denaturation monitored by circular dichroism at 222 nm; type: physicochemical; design: ΔCp: unit not given here
Protocol: All of the peptides were thermally unfolded, monitoring the loss of signal at 222 nm by CD spectroscopy with increasing temperature. Scans taken with 60 s signal averaging time and equilibration of 4 min at each temperature. Concentrations of peptide are 50 and 125 μM. Data were fit to a two-state model (theoretical curves are shown) with a monomer-pentamer equilibrium. […] Previously it has been shown that global fitting of such curves obtained at multiple protein concentrations can be used to confirm the aggregation state and obtain highly accurate measures of the free energy of association. Application of these procedures to WSPLB allows an excellent fit for a monomer-pentamer equilibrium, providing the thermodynamic parameters described in Table 1. The predicted midpoint concentration for the monomer-pentamer isotherm was 4.9 μM (30 kcal/mol) at 25° C., in good agreement with the value of 6 μM (28 kcal/mol) obtained from sedimentation equilibrium.
Conditions are identical to those in FIG. 2. Scans taken with 60 s signal averaging time and equilibration of 4 min at each temperature. Concentrations of both peptides are 50 μM. […] At these concentrations the ΔTm was approximately 8° C., and the ΔΔGunf was 4 kcal/mol. In Table 1, parameters are shown for full length WSPLB and phosphorylated pWSPLB, including ΔGunf, ΔHunf, and ΔCp, all at 1 M standard state, and a reference temperature of 350 K. Tm at 50 μM is also shown. ACP was a global fitting parameter for WSPLB, but held fixed for pWSPLB at the same value as WSPLB.
Thermal unfolding curves of WSPLB (residues 21-52) from 2 to 94° C. are illustrated in FIG. 7. Scans taken with 60 s signal averaging time and equilibration of 4 minutes at each temperature. Conditions and peptide concentrations were identical to those in FIG. 2. […] At higher temperatures a main transition is observed, which depends on the concentration of the peptide. […] In contrast, the main transition corresponds to dissociation of the oligomer to unfolded monomer. The increase in stability of WSPLB (residues 21-52) to WSPLB, also seen in sedimentation equilibrium, is apparent in the increase in Tm which is 76° C. for WSPLB (residues 21-52) versus 55° C. for WSPLB at 50 μM.
All CD spectra were collected on an AVIV 62DS spectropolarimeter, using a 1 mm pathlength quartz cuvette. CD spectra of WSPLB and pWSPLB were collected in 10 mM sodium phosphate pH 7.5, 50 mM NaCl, 1 mM tris (2-carboxyethyl)-phosphine hydrochloride (TCEP-HCl), and 1 mM EDTA while those for WSPLB (residues 21-52) in the same buffer substituted with 50 mM MOPS pH 7. Each wavelength scan from 200-260 nm is an average of four scans with 4 second averaging time per data point at 25° C. All thermal melting curves were collected in the same buffers as their corresponding wavelength scans, with 60 second averaging time and 4 minute equilibration time. The elipticity was measured at 222 nm as a function of increasing temperature (2-94° C.). WSPLB and pWSPLB melting curves were analyzed with Igor Pro® 3.16 (available from WaveMetrics, Inc., Oswego, Oreg. 97035), assuming a two-state unfolding pathway.
where [θ] is mean residue elipticity (deg cm^2 dmol^−1), T° is the midpoint of the transition, ΔH° is the van't Hoff enthalpy at the midpoint (kcal mol^−1), ΔS° is the standard state entropy (kcal mol^−1 K^−1), and ΔCP is the change in heat capacity over the temperature range of the experiment (kcal mol^−1 K^−1). In fitting, the floating parameters are the initial and final [θ] values, the slopes of the folded and unfolded baselines, ΔH, ΔCP, and Tm. The parameters were globally fit to three equilibria schemes, from monomer-tetramer to hexamer, using data collected at 49 and 126 μM. Only the monomer-pentamer scheme provided an adequate fit to the data. ΔCP was held constant for pWSPLB at the value obtained for WSPLB.

[2] = Sedimentation equilibrium analytical ultracentrifugation, monomer-nmer self-association; type: physicochemical
Protocol: Sedimentation equilibrium was used to rigorously determine the association state and thermodynamics of the observed oligomers. Because WSPLB eluted as a single homogenous species from size exclusion chromatography, and its CD spectra were concentration independent above 100 μM, we initially determined its association state at 113 μM centrifuged at 35,000 rpm. In these conditions, WSPLB sedimented as a single species with a molecular weight of approximately 31,600+/−200, or a pentamer (n=5.04). […] The monomer-pentamer dissociation constant was determined to be 6.34×10^−21 M^4 with a P(1/2)=6 μM, where P(1/2) is the midpoint of the monomer-nmer isotherm in total peptide concentration. […]
Measurements were made at 25° C. using a Beckman XL-1 analytical ultracentrifuge. […] Concentrations were monitored using absorption optics at a wavelength of 275 nm and equilibrium was assessed by the absence of significant change in radial concentration gradients in scans separated by a few hours. […] An uncertainty was estimated of about +10% in the calculated molecular weight of the protein, arising largely from uncertainty in the partial specific volume, which is calculated from a weight average of individual amino acids. […] Association constants were determined similarly, keeping the monomer molecular weight and oligomer number constant, and allowing the equilibrium constant to float. […]

[3] = global fit, monomer-pentamer, 1 M standard state, reference temperature 350 K

WSK-3, sequence (P0A334 whole entry L24D/W26E/G43A/Q58A/T61S/R64D/L81R/V93E/S102V/G104A, looked up): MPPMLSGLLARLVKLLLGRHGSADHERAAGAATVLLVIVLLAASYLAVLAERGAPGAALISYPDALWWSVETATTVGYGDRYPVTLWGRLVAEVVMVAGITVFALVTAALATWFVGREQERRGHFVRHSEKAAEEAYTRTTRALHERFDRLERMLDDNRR
native channel, sequence (P0A334 whole entry): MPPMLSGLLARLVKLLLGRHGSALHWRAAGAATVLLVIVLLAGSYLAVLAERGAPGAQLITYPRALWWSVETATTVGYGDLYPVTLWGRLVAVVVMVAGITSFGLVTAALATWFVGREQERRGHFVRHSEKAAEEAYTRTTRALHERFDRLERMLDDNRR

Compound | competition with AgTx2-DNP for binding to WSK-3 (WSK-3; AgTx2-DNP 10 μM, WSK-3 10 μM tetramer, relative to KCl control) | Kd (WSK-3; read-out: Kdiss for TEA, from TEA concentration for 50% total toxin dissociation, assuming Kdiss≦2 μM for AgTx2-DNP) [mM] | Kd (native channel) [mM] | increase of stability by phosphorylation [1] [kcal/mol/monomer] | Tm at 50 μM ([1]; 50 μM peptide, CD 222 nm, 2-94° C.) [°C] | predicted midpoint concentration for the monomer-pentamer isotherm ([1]; at 25° C., from global fit of thermal denaturation) [µM] | free energy of association (monomer-pentamer) ([1]; at 25° C., from thermal denaturation) [kJ/mol] | ΔGunf [1, 3] [kJ/mol] | ΔHunf [1, 3] [kJ/mol] | ΔCp ([1]; global fitting parameter for WSPLB, held fixed for pWSPLB at the WSPLB value) | free energy of association (monomer-pentamer) ([2]; from sedimentation equilibrium) [kJ/mol] | P(1/2), midpoint of the monomer-nmer isotherm in total peptide concentration ([2]; monomer-pentamer, sedimentation equilibrium, 25° C.) [µM]
CC[N+](CC)(CC)CC.[Cl-] [TEA, tetraethylammonium chloride] | induces dissociation of AgTx2-DNP from WSK-3 in a concentration-dependent manner | ≤ 80 | 3.2 to 22 | – | – | – | – | – | – | – | – | –
WSPLB: computationally designed water-soluble analog of phospholamban, full length, expressed in E. coli (MDKVQYLTRSAIRRAISTIEMPQQARQNLQNLYINRCLREICQELKEIRAMLK; WSPLB) | – | – | – | -0.9 | 55 | 4.9 | 126 | 80.3 | 958 | 1.9 | 117 | 6
